Molecular target: T1, peptide fragment of the human prorenin receptor protein, 200-213th polypeptide (SEQ ID NO: 37) (human)
T1 construct: For immunisation, KLH was linked to its amino terminus; also called peptide fragment of the prorenin receptor
T1 peptide: HKHLAKDHSPDLYS
Test: BLI (BLItz, Pall ForteBio), antibody in hybridoma culture liquid against the prorenin receptor peptide fragment

B1: anti-prorenin receptor monoclonal antibody 8_6 (antibody, IgM, V domains shown)
VH: VQLVESGGGLVQPGRSLKLSCAASGFTFSNYYMAWVRHAPKKGLEWVATISTSGSRTYYPDSVKGRFTISRDNAKSSLYLQMNSLKSEDTATYYCARHEFGAFDYWGQGVTV
VL: DIVMTQSPSSLAVSAGETVTINCKSSQSLLYSGNQKNYLAWYQQKPGQSPKLLIYWASTRQSGVPDRFIGSGSGTDFTLTISSVQAEDLAIYYCQQYYDTPYTFGAGTK
notes: Rat hybridoma antibody, isotype IgM; Hybridoma culture liquid was tested in the BLI screen
Q: Does B1 bind?
A: Result: binds

From patent WO2018084236A1 (dated 2018)
